B1: NRC3_wobSeed5_DR0_A15C_o1 (dsDNA)
DNA 1: GCCCTTACGGGTCACGGTTATAGCACGGGTGGTACGGCGATTGACAGCGTAGAATGAAGG
DNA 2: CCTTCATTCTACGCTGTCAATCGCCGTACCACCCGTGCTATAACCGTGACCCGTAAGGGC
B2: NRC3_wobSeed44_DR1_T13G_o1 (dsDNA)
DNA 1: GCTGAATGAGGTGAAAGATCAGGGAACGTGGCGTCGGCGATTGACAGCGTAGAATGAAGG
DNA 2: CCTTCATTCTACGCTGTCAATCGCCGACGCCACGTTCCCTGATCTTTCACCTCATTCAGC
B3: NRC3_wobSeed61_DR2_T24A_o1 (dsDNA)
DNA 1: GCCGTCCAAGGTCAGCAGGTCAGAGAAAGCGACGTGGCGATTGACAGCGTAGAATGAAGG
DNA 2: CCTTCATTCTACGCTGTCAATCGCCACGTCGCTTTCTCTGACCTGCTGACCTTGGACGGC
B4: NRC3_wobSeed4_DR0_T22A_o1 (dsDNA)
DNA 1: GCCCTACTGGGCCAAGGTCATAGATCAGTCAAAGCAGCGATTGACAGCGTAGAATGAAGG
DNA 2: CCTTCATTCTACGCTGTCAATCGCTGCTTTGACTGATCTATGACCTTGGCCCAGTAGGGC
B5: NRC3_wobSeed77_DR3_C16G_o1 (dsDNA)
DNA 1: GCACTTACGGGTCAAGGAGGTTATAGCACGCGTATAGCGATTGACAGCGTAGAATGAAGG
DNA 2: CCTTCATTCTACGCTGTCAATCGCTATACGCGTGCTATAACCTCCTTGACCCGTAAGTGC
B6: NRC3_wobSeed77_DR3_G19A_o1 (dsDNA)
DNA 1: GCACTTACGGGTCAACGAAGTTATAGCACGCGTATAGCGATTGACAGCGTAGAATGAAGG
DNA 2: CCTTCATTCTACGCTGTCAATCGCTATACGCGTGCTATAACTTCGTTGACCCGTAAGTGC
B7: NRC3_wobSeed135_DR5_A5C_o1 (dsDNA)
DNA 1: GCCGCACTAGGTCATTGACAGGACAGTGAATAGTAAGCGATTGACAGCGTAGAATGAAGG
DNA 2: CCTTCATTCTACGCTGTCAATCGCTTACTATTCACTGTCCTGTCAATGACCTAGTGCGGC
B8: NRC3_wobSeed90_DR3_G15T_o1 (dsDNA)
DNA 1: GCCATACAGGGTCATCTAGGCCAGAGTAGGGACGGCGCGATTGACAGCGTAGAATGAAGG
DNA 2: CCTTCATTCTACGCTGTCAATCGCGCCGTCCCTACTCTGGCCTAGATGACCCTGTATGGC
B9: NRC3_wobSeed74_DR3_A27G_o1 (dsDNA)
DNA 1: GCTCTAGTTGGTCACGGAGGTCACACGCGACGGGTAGCGATTGACAGCGTAGAATGAAGG
DNA 2: CCTTCATTCTACGCTGTCAATCGCTACCCGTCGCGTGTGACCTCCGTGACCAACTAGAGC
B10: NRC3_wobSeed7_DR0_A13T_o1 (dsDNA)
DNA 1: GCTCATATAGGTTAAGGTGAAAGTCGAACGATATGAGCGATTGACAGCGTAGAATGAAGG
DNA 2: CCTTCATTCTACGCTGTCAATCGCTCATATCGTTCGACTTTCACCTTAACCTATATGAGC
B11: NRC3_wobSeed43_DR1_A25C_o1 (dsDNA)
DNA 1: GCCCAGACAGGTGAAAGGTAACTCCGTCTGGTACGCGCGATTGACAGCGTAGAATGAAGG
DNA 2: CCTTCATTCTACGCTGTCAATCGCGCGTACCAGACGGAGTTACCTTTCACCTGTCTGGGC
B12: NRC3_wobSeed109_DR4_G4C_o1 (dsDNA)
DNA 1: GCCCTCCAAGGTCATAGGAGGTCAGTGAAGACAGATGCGATTGACAGCGTAGAATGAAGG
DNA 2: CCTTCATTCTACGCTGTCAATCGCATCTGTCTTCACTGACCTCCTATGACCTTGGAGGGC
B13: NRC3_wobSeed69_DR2_T20C_o1 (dsDNA)
DNA 1: GCAGTCAAAGTTCACTAGGCAACGTAAGATTCAGCTGCGATTGACAGCGTAGAATGAAGG
DNA 2: CCTTCATTCTACGCTGTCAATCGCAGCTGAATCTTACGTTGCCTAGTGAACTTTGACTGC
B14: NRC3_wobSeed141_DR5_C26A_o1 (dsDNA)
DNA 1: GCAGTCAAAGTTCAGGACGAGGTAAAGTAAAGCACGGCGATTGACAGCGTAGAATGAAGG
DNA 2: CCTTCATTCTACGCTGTCAATCGCCGTGCTTTACTTTACCTCGTCCTGAACTTTGACTGC
B15: NRC3_wobSeed141_DR5_G22A_o1 (dsDNA)
DNA 1: GCAGTCAAAGTTCAGGACGAGATAACGTAAAGCACGGCGATTGACAGCGTAGAATGAAGG
DNA 2: CCTTCATTCTACGCTGTCAATCGCCGTGCTTTACGTTATCTCGTCCTGAACTTTGACTGC
B16: NRC3_wobSeed93_DR3_A18G_o1 (dsDNA)
DNA 1: GCAGTCAAAGTTCATCTGGGTAACGTAAGATATGCTGCGATTGACAGCGTAGAATGAAGG
DNA 2: CCTTCATTCTACGCTGTCAATCGCAGCATATCTTACGTTACCCAGATGAACTTTGACTGC
B17: NRC3_wobSeed93_DR3_C16T_o1 (dsDNA)
DNA 1: GCAGTCAAAGTTCATTTAGGTAACGTAAGATATGCTGCGATTGACAGCGTAGAATGAAGG
DNA 2: CCTTCATTCTACGCTGTCAATCGCAGCATATCTTACGTTACCTAAATGAACTTTGACTGC
B18: NRC3_wobSeed111_DR4_A17G_o1 (dsDNA)
DNA 1: GCCGAACTAGGTCAGAGCAGGACAGTGAAGGATGATGCGATTGACAGCGTAGAATGAAGG
DNA 2: CCTTCATTCTACGCTGTCAATCGCATCATCCTTCACTGTCCTGCTCTGACCTAGTTCGGC
B19: NRC3_wobSeed46_DR1_G13A_o1 (dsDNA)
DNA 1: GCTTACCAAGGTAAAAGGTCGTTGATGCACGCCTTGGCGATTGACAGCGTAGAATGAAGG
DNA 2: CCTTCATTCTACGCTGTCAATCGCCAAGGCGTGCATCAACGACCTTTTACCTTGGTAAGC
B20: NRC3_wobSeed34_DR1_C5A_o1 (dsDNA)
DNA 1: GCATAGAAAGGTCGAAGGTGAGTATACCCACCCGAAGCGATTGACAGCGTAGAATGAAGG
DNA 2: CCTTCATTCTACGCTGTCAATCGCTTCGGGTGGGTATACTCACCTTCGACCTTTCTATGC
B21: NRC3_wobSeed34_DR1_T25C_o1 (dsDNA)
DNA 1: GCATCGAAAGGTCGAAGGTGAGTACACCCACCCGAAGCGATTGACAGCGTAGAATGAAGG
DNA 2: CCTTCATTCTACGCTGTCAATCGCTTCGGGTGGGTGTACTCACCTTCGACCTTTCGATGC
B22: NRC3_wobSeed32_DR1_A9T_o1 (dsDNA)
DNA 1: GCTCTTGTTGATCAAAGGTTAAGAAAGCCGAAGCCTGCGATTGACAGCGTAGAATGAAGG
DNA 2: CCTTCATTCTACGCTGTCAATCGCAGGCTTCGGCTTTCTTAACCTTTGATCAACAAGAGC
B23: NRC3_wobSeed30_DR1_C8A_o1 (dsDNA)
DNA 1: GCACTAGAAGGCCAAGGGTCACTCAAGATTAGTCCGGCGATTGACAGCGTAGAATGAAGG
DNA 2: CCTTCATTCTACGCTGTCAATCGCCGGACTAATCTTGAGTGACCCTTGGCCTTCTAGTGC
B24: NRC3_wobSeed27_DR1_C13T_o1 (dsDNA)
DNA 1: GCACTCGGAGGATAAAGGTCAGAGCTACGCCAGTGAGCGATTGACAGCGTAGAATGAAGG
DNA 2: CCTTCATTCTACGCTGTCAATCGCTCACTGGCGTAGCTCTGACCTTTATCCTCCGAGTGC
B25: NRC3_wobSeed27_DR1_A15G_o1 (dsDNA)
DNA 1: GCACTCGGAGGACAGAGGTCAGAGCTACGCCAGTGAGCGATTGACAGCGTAGAATGAAGG
DNA 2: CCTTCATTCTACGCTGTCAATCGCTCACTGGCGTAGCTCTGACCTCTGTCCTCCGAGTGC
B26: NRC3_wobSeed138_DR5_G15T_o1 (dsDNA)
DNA 1: GCGATACAGGGTCATCTAGAGGCCAGAGTATGGAAAGCGATTGACAGCGTAGAATGAAGG
DNA 2: CCTTCATTCTACGCTGTCAATCGCTTTCCATACTCTGGCCTCTAGATGACCCTGTATCGC
B27: NRC3_wobSeed138_DR5_A6T_o1 (dsDNA)
DNA 1: GCGATTCAGGGTCAGCTAGAGGCCAGAGTATGGAAAGCGATTGACAGCGTAGAATGAAGG
DNA 2: CCTTCATTCTACGCTGTCAATCGCTTTCCATACTCTGGCCTCTAGCTGACCCTGAATCGC
B28: NRC3_wobSeed25_DR1_T25A_o1 (dsDNA)
DNA 1: GCCAAACTAGGTCAAAGGTCAAAGACGAGCCAACCAGCGATTGACAGCGTAGAATGAAGG
DNA 2: CCTTCATTCTACGCTGTCAATCGCTGGTTGGCTCGTCTTTGACCTTTGACCTAGTTTGGC
B29: NRC3_wobSeed20_DR0_A9G_o1 (dsDNA)
DNA 1: GCAGAATGGGGTTAAGATCAGGGAAACAGAATACATGCGATTGACAGCGTAGAATGAAGG
DNA 2: CCTTCATTCTACGCTGTCAATCGCATGTATTCTGTTTCCCTGATCTTAACCCCATTCTGC
B30: NRC3_wobSeed113_DR4_A28C_o1 (dsDNA)
DNA 1: GCATATGTAGGTTAGCTGGGGTCATTCCGACTAGGCGCGATTGACAGCGTAGAATGAAGG
DNA 2: CCTTCATTCTACGCTGTCAATCGCGCCTAGTCGGAATGACCCCAGCTAACCTACATATGC
B31: NRC3_wobSeed18_DR0_G23A_o1 (dsDNA)
DNA 1: GCGATACAGGGTCAAGGCCAGAATACGCGTATTGATGCGATTGACAGCGTAGAATGAAGG
DNA 2: CCTTCATTCTACGCTGTCAATCGCATCAATACGCGTATTCTGGCCTTGACCCTGTATCGC
B32: NRC3_wobSeed133_DR5_G17T_o1 (dsDNA)
DNA 1: GCCGTCCAAGGTCAATTCTAGGTCAGTGAAAGCATTGCGATTGACAGCGTAGAATGAAGG
DNA 2: CCTTCATTCTACGCTGTCAATCGCAATGCTTTCACTGACCTAGAATTGACCTTGGACGGC
B33: NRC3_wobSeed133_DR5_C7G_o1 (dsDNA)
DNA 1: GCCGTCGAAGGTCAATGCTAGGTCAGTGAAAGCATTGCGATTGACAGCGTAGAATGAAGG
DNA 2: CCTTCATTCTACGCTGTCAATCGCAATGCTTTCACTGACCTAGCATTGACCTTCGACGGC

biological target: PPARg:RXRa (Homo sapiens, UniProt P37231;P19793 full;full); assay: no ligand; PBM; 180 nM : 90 nM RXRa; PBS pH 7.4, 2% milk, 0.02% Triton X-100, 1 mM DTT, BSA, 0.4 mg/ml salmon testes DNA; conditions: tags: His kept;His cleaved; copies: 1;1; label: surface-attached array probe
Sequence (P37231 29-505, chain 1 of 2): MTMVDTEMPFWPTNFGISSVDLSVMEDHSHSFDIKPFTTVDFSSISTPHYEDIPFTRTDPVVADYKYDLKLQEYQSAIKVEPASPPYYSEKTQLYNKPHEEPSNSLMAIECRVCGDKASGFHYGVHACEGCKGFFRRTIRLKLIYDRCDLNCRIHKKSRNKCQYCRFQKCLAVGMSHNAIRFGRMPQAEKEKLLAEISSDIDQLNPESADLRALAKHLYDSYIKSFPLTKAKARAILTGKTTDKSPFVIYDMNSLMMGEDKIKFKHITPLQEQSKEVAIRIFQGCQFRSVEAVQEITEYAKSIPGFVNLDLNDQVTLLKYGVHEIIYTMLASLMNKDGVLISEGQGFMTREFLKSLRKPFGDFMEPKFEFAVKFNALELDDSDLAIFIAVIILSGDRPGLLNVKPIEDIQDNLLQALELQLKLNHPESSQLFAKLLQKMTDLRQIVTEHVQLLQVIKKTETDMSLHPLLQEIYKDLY
Sequence (P19793 whole entry, chain 2 of 2): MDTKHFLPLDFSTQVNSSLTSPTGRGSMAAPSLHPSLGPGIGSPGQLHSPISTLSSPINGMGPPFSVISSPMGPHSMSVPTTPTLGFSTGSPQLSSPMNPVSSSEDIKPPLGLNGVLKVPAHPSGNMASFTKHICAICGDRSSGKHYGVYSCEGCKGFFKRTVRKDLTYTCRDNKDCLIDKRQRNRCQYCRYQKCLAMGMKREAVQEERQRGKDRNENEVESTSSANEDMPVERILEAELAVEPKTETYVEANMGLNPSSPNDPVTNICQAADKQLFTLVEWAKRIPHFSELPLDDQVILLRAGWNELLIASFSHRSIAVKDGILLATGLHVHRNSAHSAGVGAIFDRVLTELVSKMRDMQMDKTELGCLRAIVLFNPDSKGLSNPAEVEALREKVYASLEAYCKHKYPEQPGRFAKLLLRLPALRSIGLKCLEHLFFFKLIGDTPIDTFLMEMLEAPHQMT

Point of comparison: B4, binding signal 4.36 PBM z-score against 500 random probes. Against it:
- B1 — higher, 6.21 PBM z-score against 500 random probes
- B2 — higher, 6.9 PBM z-score against 500 random probes
- B3 — higher, 4.83 PBM z-score against 500 random probes
- B5 — higher, 5.22 PBM z-score against 500 random probes
- B6 — higher, 4.99 PBM z-score against 500 random probes
- B7 — higher, 7.03 PBM z-score against 500 random probes
- B8 — higher, 5.29 PBM z-score against 500 random probes
- B9 — lower, 3.93 PBM z-score against 500 random probes
- B10 — higher, 4.42 PBM z-score against 500 random probes
- B11 — higher, 5.61 PBM z-score against 500 random probes
- B12 — higher, 5.72 PBM z-score against 500 random probes
- B13 — higher, 6.68 PBM z-score against 500 random probes
- B14 — higher, 4.92 PBM z-score against 500 random probes
- B15 — higher, 4.64 PBM z-score against 500 random probes
- B16 — higher, 6.45 PBM z-score against 500 random probes
- B17 — higher, 5.92 PBM z-score against 500 random probes
- B18 — higher, 5.81 PBM z-score against 500 random probes
- B19 — higher, 6.58 PBM z-score against 500 random probes
- B20 — higher, 5.06 PBM z-score against 500 random probes
- B21 — higher, 4.49 PBM z-score against 500 random probes
- B22 — lower, 4.28 PBM z-score against 500 random probes
- B23 — higher, 6.78 PBM z-score against 500 random probes
- B24 — higher, 6.02 PBM z-score against 500 random probes
- B25 — higher, 4.56 PBM z-score against 500 random probes
- B26 — higher, 6.11 PBM z-score against 500 random probes
- B27 — lower, 4.08 PBM z-score against 500 random probes
- B28 — higher, 14.6 PBM z-score against 500 random probes
- B29 — higher, 4.73 PBM z-score against 500 random probes
- B30 — higher, 5.53 PBM z-score against 500 random probes
- B31 — higher, 6.34 PBM z-score against 500 random probes
- B32 — lower, 4.21 PBM z-score against 500 random probes
- B33 — lower, 4.13 PBM z-score against 500 random probes

— PMC6555819, “Comprehensive study of nuclear receptor DNA binding provides a revised framework for understanding receptor specificity”
